The text below walks through data of patent US20060078953.

For this data set, the system named is histone H4 methylated at arginine 3.

In the case of “commercially available skeletal muscle PAD”, the “Western blot staining with antibodies to methylated arginine 3 H4 after PAD treatment” value is “A complete loss of staining with antibodies to this modification was observed following PAD treatment”.
